Measured values published in the MegaScale stability set (Tsuboyama et al. 2023).

B1: 1ZHC (parent)
chain: HEFRDEISVLKANNPHFDKIFEKHNQLDDDIKTAEQQNASDAEVSHMKKQKLKLKDEIHSMIIEYREK

Variants of: B1
Experiment: folding stability dG (cDNA display proteolysis); higher = more stable
Conditions: PBS, room temperature

Variant	folding stability dG
HEFRDEISVLKANNPHCDKIFEKHNQLDDDIKTAEQQNASDAEVSHMKKQKLKLKDEIHSMIIEYREK [F17C]	-0.409 kcal/mol
HEFRDEISVLKANNPHEDKIFEKHNQLDDDIKTAEQQNASDAEVSHMKKQKLKLKDEIHSMIIEYREK [F17E]	-0.562 kcal/mol
HEFRDEISVLKANNPHGDKIFEKHNQLDDDIKTAEQQNASDAEVSHMKKQKLKLKDEIHSMIIEYREK [F17G]	-0.943 kcal/mol
HEFRDEISVLKANNPHRDKIFEKHNQLDDDIKTAEQQNASDAEVSHMKKQKLKLKDEIHSMIIEYREK [F17R]	-0.98 kcal/mol
HEFRDEISVLKANNHHFDKIFEKHNQLDDDIKTAEQQNASDAEVSHMKKQKLKLKDEIHSMIIEYREK [P15H]	0.38 kcal/mol
HEFRDEISVLKANNTHFDKIFEKHNQLDDDIKTAEQQNASDAEVSHMKKQKLKLKDEIHSMIIEYREK [P15T]	0.292 kcal/mol
HEFRDEISVLKANNSHFDKIFEKHNQLDDDIKTAEQQNASDAEVSHMKKQKLKLKDEIHSMIIEYREK [P15S]	0.822 kcal/mol
HEFRDEISVLKANNCHFDKIFEKHNQLDDDIKTAEQQNASDAEVSHMKKQKLKLKDEIHSMIIEYREK [P15C]	0.845 kcal/mol
HEFRDEISVLKANNMHFDKIFEKHNQLDDDIKTAEQQNASDAEVSHMKKQKLKLKDEIHSMIIEYREK [P15M]	0.07 kcal/mol
HEFRDEISVLKANNRHFDKIFEKHNQLDDDIKTAEQQNASDAEVSHMKKQKLKLKDEIHSMIIEYREK [P15R]	0.029 kcal/mol
HEFRDEISVLKANNAHFDKIFEKHNQLDDDIKTAEQQNASDAEVSHMKKQKLKLKDEIHSMIIEYREK [P15A]	0.443 kcal/mol
HEFRDEISVLKANNQHFDKIFEKHNQLDDDIKTAEQQNASDAEVSHMKKQKLKLKDEIHSMIIEYREK [P15Q]	0.122 kcal/mol
HEFRDEISVLKANNVHFDKIFEKHNQLDDDIKTAEQQNASDAEVSHMKKQKLKLKDEIHSMIIEYREK [P15V]	0.356 kcal/mol
HEFRDEISVLKANNLHFDKIFEKHNQLDDDIKTAEQQNASDAEVSHMKKQKLKLKDEIHSMIIEYREK [P15L]	0.336 kcal/mol
HEFRDEISVLKANNDHFDKIFEKHNQLDDDIKTAEQQNASDAEVSHMKKQKLKLKDEIHSMIIEYREK [P15D]	0.108 kcal/mol
HEFRDEISVLKANNYHFDKIFEKHNQLDDDIKTAEQQNASDAEVSHMKKQKLKLKDEIHSMIIEYREK [P15Y]	-0.634 kcal/mol
HEFRDEISVLKANNKHFDKIFEKHNQLDDDIKTAEQQNASDAEVSHMKKQKLKLKDEIHSMIIEYREK [P15K]	0.313 kcal/mol
HEFRDEISVLKANNFHFDKIFEKHNQLDDDIKTAEQQNASDAEVSHMKKQKLKLKDEIHSMIIEYREK [P15F]	-0.013 kcal/mol
HEFRDEISVLKANNWHFDKIFEKHNQLDDDIKTAEQQNASDAEVSHMKKQKLKLKDEIHSMIIEYREK [P15W]	0.335 kcal/mol
HEFRDEISVLKANNGHFDKIFEKHNQLDDDIKTAEQQNASDAEVSHMKKQKLKLKDEIHSMIIEYREK [P15G]	0.048 kcal/mol

Variant	folding stability dG
HEFRDEISVLKANNIHFDKIFEKHNQLDDDIKTAEQQNASDAEVSHMKKQKLKLKDEIHSMIIEYREK [P15I]	0.31 kcal/mol
HEFRDEISVLKANNNHFDKIFEKHNQLDDDIKTAEQQNASDAEVSHMKKQKLKLKDEIHSMIIEYREK [P15N]	0.045 kcal/mol
HEFRDEISVLKANNEHFDKIFEKHNQLDDDIKTAEQQNASDAEVSHMKKQKLKLKDEIHSMIIEYREK [P15E]	0.365 kcal/mol
HEFRDEISVLKARNPHFDKIFEKHNQLDDDIKTAEQQNASDAEVSHMKKQKLKLKDEIHSMIIEYREK [N13R]	1 kcal/mol
HEFRDEISVLKAENPHFDKIFEKHNQLDDDIKTAEQQNASDAEVSHMKKQKLKLKDEIHSMIIEYREK [N13E]	0.701 kcal/mol
HEFRDEISVLKAVNPHFDKIFEKHNQLDDDIKTAEQQNASDAEVSHMKKQKLKLKDEIHSMIIEYREK [N13V]	0.458 kcal/mol
HEFRDEISVLKAGNPHFDKIFEKHNQLDDDIKTAEQQNASDAEVSHMKKQKLKLKDEIHSMIIEYREK [N13G]	0.346 kcal/mol
HEFRDEISVLKAWNPHFDKIFEKHNQLDDDIKTAEQQNASDAEVSHMKKQKLKLKDEIHSMIIEYREK [N13W]	1.06 kcal/mol
HEFRDEISVLKAQNPHFDKIFEKHNQLDDDIKTAEQQNASDAEVSHMKKQKLKLKDEIHSMIIEYREK [N13Q]	1.22 kcal/mol
HEFRDEISVLKAMNPHFDKIFEKHNQLDDDIKTAEQQNASDAEVSHMKKQKLKLKDEIHSMIIEYREK [N13M]	1.33 kcal/mol
HEFRDEISVLKAHNPHFDKIFEKHNQLDDDIKTAEQQNASDAEVSHMKKQKLKLKDEIHSMIIEYREK [N13H]	0.775 kcal/mol
HEFRDEISVLKAFNPHFDKIFEKHNQLDDDIKTAEQQNASDAEVSHMKKQKLKLKDEIHSMIIEYREK [N13F]	0.565 kcal/mol
HEFRDEISVLKAKNPHFDKIFEKHNQLDDDIKTAEQQNASDAEVSHMKKQKLKLKDEIHSMIIEYREK [N13K]	0.586 kcal/mol
HEFRDEISVLKALNPHFDKIFEKHNQLDDDIKTAEQQNASDAEVSHMKKQKLKLKDEIHSMIIEYREK [N13L]	1.44 kcal/mol
HEFRDEISVLKAYNPHFDKIFEKHNQLDDDIKTAEQQNASDAEVSHMKKQKLKLKDEIHSMIIEYREK [N13Y]	0.635 kcal/mol
HEFRDEISVLKAINPHFDKIFEKHNQLDDDIKTAEQQNASDAEVSHMKKQKLKLKDEIHSMIIEYREK [N13I]	1.31 kcal/mol
HEFRDEISVLKADNPHFDKIFEKHNQLDDDIKTAEQQNASDAEVSHMKKQKLKLKDEIHSMIIEYREK [N13D]	0.311 kcal/mol
HEFRDEISVLKAANPHFDKIFEKHNQLDDDIKTAEQQNASDAEVSHMKKQKLKLKDEIHSMIIEYREK [N13A]	0.764 kcal/mol
HEFRDEISVLKATNPHFDKIFEKHNQLDDDIKTAEQQNASDAEVSHMKKQKLKLKDEIHSMIIEYREK [N13T]	1.39 kcal/mol
HEFRDEISVLKASNPHFDKIFEKHNQLDDDIKTAEQQNASDAEVSHMKKQKLKLKDEIHSMIIEYREK [N13S]	0.889 kcal/mol
